The domain aggregation screens of Martell et al. (2025)

Test: soluble fraction after stress (log2 fold change); higher = more stays soluble; pooled small domains, quantitative proteomics
Conditions: stress: 75 degC
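Note: 20 min heating vs room temperature control held 20 min.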

Sequence	soluble fraction (log2)
HMNAQLTTQEAADLLNVSRPHLVKLLEDGELPFLRTGKHRRVRLADLLQFKNAREQASVQAMDELSRQAQ	-0.103
HMKDRNISSSVLEILSKDPDHTYNYKQIAALLGVKDAFIRKRIVTLLAQLAKDGHLDEISRGKYQIK	-1.22
HMAKDDFMSFVKAVWPEFIEGAHHRVIAQKFNDLATGKITRLIVNMPPRHTKSEFASYLLPAW	0.214
HMGYPGLGSIGSKPLGDLLFQSKLFVKTKREFAEFKMANNNIVWGRRTQYLVRNYPLSVMEVFL	-0.0522
HMKLISVAVMRASDAAEIAGGTDSKTLMYRAGLGLFQSWDWHGKIDIVTGSGNNAGDGYVLALLL	0.14
HMKNNLKGSPIIIAGGYGVGSKENFNLLFDLAKVLNAEVGASRAAVDAGFVEHDRQIGQTGVTVRP	0.143
HMIEINNLEDLKLMKEFILKNGKYGFGVFVGGKYIGLSDIGSVNSFKDTLGLPVVSLGNDDFKRFTEAH	-1.07
HMLVMTDNVIKAINDLLNYEAAAGIKKKQRYTAYQIYKELSEQGVYHGSRRRMEEVVSKLRVERNQI	-2.79
HMSDYKSALQEAVQTNKQSIEYVLIKESGPAHNKTFTFEVRIDNISYGVGTAKSKKEAEQIAAKDALDKLV	-0.0877
HMVELPDLIGKSKRLAFTQLEISGLKIGKIIYEPDLAKDAVLKILYNGKIVKAGEQLPRFATVDLVLG	-2.11
HMSILYNAVKGTLVSSGALTADSWYKISSFGTASALPALKVGSIFKTPEGAGDAITLASGDSVYPLTLT	-1.28
HMVDLANIDPIASSIKLNGAEADASFNTLEDRRVSVSGSFEENKNYTMEYTFKDYAGGSVTGTLDFKTLA	0.36
HMEKLIRIKRLIKQLNEYRDSYYNEARPVVSDAAYDKLFDELSELEKETGVVYANSPTQTVG	0.0942
HMGVPELHKGEIVQAVVEKVLGEGLLRVNLKGMTVEAATSLRLNPGQQLLLRSEGIENGRQVLR	0.275
HMSISEADAKKIALEKVPGATDSNLRIKTDYDDGIMKYEVKIVYNEMKYEFDIDAATGTILEWESESVY	-1.37
HMFTEPQKLVKRILNMLGHRYDDASIQARSDFQASNNYHKVQVKKKRESMEEYTAWLEEMYDAYRIN	-1.49
HMEGSVTVMVNGESVTMTGKQNYIFVDVFDWYSFDLSAGKGRAIATLVNGKEAEFSQPLANGDNIELYWKE	-2.15
HMESIAEIDRMNAKIFMDEFQDSLSIMQKTTNPETFFSRYDLAMERLDNMVELQQKGIKFTSDLSSLKAQ	0.0865
HMDVLDVADNVNDDMSFADAFAAARSEVGAGGIFYWHGKAYGTYYENEWAGMSEEDKADYWDAVARTTS	-0.144

Sequence	soluble fraction (log2)
HMGVGITAPLAGNIFKIVVQPGDVVASGDVVLVLEAMKMETEIRAASGGTVSQVLVREGDAVDAGHTLITL	-2.85
HMRTYYEILGVSKNASLHEIQKAYRELALKYHPKNNSDPTAEEKFTQINEAYTHLSDAARRRSYDDL	0.554
HMGVSLKEIQENLSLIDDAAQKLASGQGTVDDAVGMGNAGKDIYDNIEGYVSSPKEFINGVLSSV	-0.0252
HMADQVLVMTRAVGQGDIVRNADIGLTSVAVDRAVATIPASQLDKIVGRHALVDLSPGQLLGSHSVGE	0.147
HMKRQATLQIGSKRFGMDDLYFKFTVPFEDSEKLGTATIEAYNLSPATRNSIKKGMPIILNAGYEGDI	-0.425
HMRSYTPGSAFRLSSVPVYNAETGPSIGVRSGTYYIHSLPVSNGRIRMTNLISRVGKPGQVSFWVEISR	-3.11
HMIDYTDTSAVKDSAAVAGRVREMINEGVPIADVNAFIRSASENGLISDDSARRLRYMNDSR	-0.0436
HMVLMPIDALRGSSSSSEMRIAAVKFSPSKGWYFSLQERSDEGSSYYEQKVASDGSVSERVKVR	-0.58
HMRAVPSIAFVTQKLIEQGVTMEQLVRSLLLDHEEYENDDSLERTADELFGKARMIISNYTPE	-1.08
HMVQDDDPNSVAKFIDQVIESNPEQVEQYRSGKEKVFNFFLGQTMRLSKGKANPDLVSELLKEKLS	0.0209
HMVPADVQHLRDIVDTMTEKQQLVYKLHVLEGYTFTEIAKLMGTSIPNVKKHYDKAILFIKNNF	-1.79
HMFDPTDLPEKQLMVYEIIKSNNGINMTNIASLLGFNKTTVDNAIRALKKKEIVVFKGTNRSGGYFNT	-1.91
HMLKPVVLLGARGLTDAVEKEVERALDEHGLIKIHVPSDDREERDEIYTTLADKLNAARIQAIGKMLVLW	-0.0344
HMPLSVRQRMSDILSNLKTSDFTNFADLFDPKEGRTGITVTFIAILELLREFLIEVVQSDHYQPLHVRAAS	-0.213
HMNIKITKSKNSEHYSIIYNTKINGKRTSKIYENIGNFEKLKLRAGEQEPIEWLKNYVSELNKKQKEDT	0.11
HMQLPFTPREHEITQLLSRGLSNRQIAEALSLSVRTVEGHIYQASTKLGISSRSELAVLVGQFA	-1.94
HMDIGKNIQTIRYANKLTQDQVIAKLNLMGISMSKSTYAKLETNRMNIKVSELVALAKIFHTDINAF	-2.62
HMPRVSIEKIKKVVELLKHNPDYTYSKIGNIVGIGRKTVSGINNGKLYTDLVEELGINEFPI	-0.459
HMYLGRKATLLSSISGEKMGNAEVLADGNLMSIYVKSLTGEPLSYGSTVLIIKHSEDQNFYLVQN	-3.54
